# Measurements reported in paper PMC5361195.
# B1: Flag-tagged wild-type A2 domain of coagulation factor VIII (pED-Flag-A2) [human] / calreticulin [not stated (endogenous in COS-1 or HEK293T cells)] (parent)
# chain 1: KTWVHYIAAEEEDWDYAPLVLAPDDRSYKSQYLNNGPQRIGRKYKKVRFMAYTDETFKTREAIQHESGILGPLLYGEVGDTLLIIFKNQASRPYNIYPHGITDVRPLYSRRLPKGVKHLKDFPILPGEIFKYKWTVTVEDGPTKSDPRCLTRYYSSFVNMERDLASGLIGPLLICYKESVDQRGNQIMSDKRNVILFSVFDENRSWYLTENIQRFLPNPAGVQLEDPEFQASNIMHSINGYVFDSLQLSVCLHEVAYWYILSIGAQTDFLSVFFSGYTFKHKMVYEDTLTLFPFSGETVFMSMENPGLWILGCHNSDFRNRGMTALLKVSSC
# chain 2: EPAVYFKEQFLDGDGWTSRWIESKHKSDFGKFVLSSGKFYGDEEKDKGLQTSQDARFYALSASFEPFSNKGQTLVVQFTVKHEQNIDCGGGYVKLFPNSLDQTDMHGDSEYNIMFGPDICGPGTKKVHVIFNYKGKNVLINKDIRCKDDEFTHLYTLIVRPDNTYEVKIDNSQVESGSLEDDWDFLPPKKIKDPDASKPEDWDERAKIDDPTDSKPEDWDKPEHIPDPDAKKPEDWDEEMDGEWEPPVIQNPEYKGEWKPRQIDNPDYKGTWIHPEIDNPEYSPDPSIYAYDNFGVLGLDLWQVKSGTIFDNFLITNDEAYAEEFGNETWGVTKAAEKQMKDKQDEEQRLKEEEEDKKRKEEEEAEDKEDDEDKDEDEEDEEDKEEDEEEDVPGQAKDEL
# Variants of: B1
# Assay: co-immunoprecipitation (anti-Flag IP, immunoblot densitometry)
# Details: with calreticulin [not stated (endogenous in COS-1 or HEK293T cells)]; 36 h after transfection; n = 3; parent: 1; read off a plot
row,Variant,ratio to parent
1,chain 1 D201V,1.1
2,chain 1 D201H,2.2

# Second part, the variant after the results:
row,ratio to parent,Variant
1,0.92,chain 1 N203D
2,2.3,chain 1 S205T
